In one data set the target is T1, Ce-C-Alac K938A (Caenorhabditis elegans, UniProt O01541 757-968, K938A).
T1 sequence: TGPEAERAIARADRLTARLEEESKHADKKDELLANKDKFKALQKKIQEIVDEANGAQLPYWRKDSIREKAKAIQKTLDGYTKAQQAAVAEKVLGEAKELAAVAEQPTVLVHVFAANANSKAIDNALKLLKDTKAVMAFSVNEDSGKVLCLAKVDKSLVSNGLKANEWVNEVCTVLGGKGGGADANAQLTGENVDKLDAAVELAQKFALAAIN
The experiment in a line: EMSA; 5 mM Mg2+; EMSA: 20 mM Hepes pH 7.5, 20 mM KCl, 5 mM MgCl2, 2 mM DTT, 10 min on ice, 0.1 uM ligand; 5% native PAGE in 0.5x TBE at 4 C; protein 0.125-32 uM. The settings on record: protein: recombinant; tags: His6 (C-terminal, pET21b); label: 5'-32P; tRNA cloverleaf.

A further data set deals with T2, Ce-C-Alac K934A (Caenorhabditis elegans, UniProt O01541 757-968, K934A).
T2 sequence: T1 sequence with K178A, A182K
The description is as above. The settings on record: protein: recombinant; tags: His6 (C-terminal, pET21b); label: 5'-32P; tRNA cloverleaf.

Changes are numbered by the printed parent chain.

B1: CetRNAnAla (structured_RNA)
RNA: GGGGGUAUAGCUCAGUGGUAGAGCGCUCCCUUAGCAUGGGAGAGGGCUGGGGUUCAAUUCCCCAUACCUCCACCA
Turning to B1, the results for the binding signal with Ce-C-Alac K938A and with Ce-C-Alac K934A were 3 fold lower affinity than WT Ce-C-Alac and 11 fold lower affinity than WT Ce-C-Alac, respectively.

The values above are taken from paper PMC10485164, “Sequence-specific targeting of Caenorhabditis elegans C-Ala to the D-loop of tRNAAla”.
